# Laboratory results published in patent US20220403363A1.
# How the values were obtained:
# [1] = test system: GlbD second part (from the T domain) without SZ
# [2] = test system: GlbD second part (from the T domain) with SZ18
# [3] = test system: gxpS_A3T3C/E4A4T4TE without SYNZIP (protein encoded by plasmid pJW83)
# [4] = test system: SYNZIP18-gxpS_A3T3C/E4A4T4TE (protein encoded by plasmid pJW76)
# [5] = molecular target: gxpS_A3T3C/E4A4T4TE without SYNZIP (protein encoded by plasmid pJW83); assay: cell-based or functional assay
# [6] = test system: T1, SYNZIP18-xtpS_T2C3A3T3C/E4A4T4TE (protein encoded by plasmid pNA5)
# T1 sequence: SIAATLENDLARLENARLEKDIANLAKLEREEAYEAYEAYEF
# [7] = test system: xtpS_T2-TE without SYNZIP (protein encoded by plasmid pNA12)
# [8] = test system: T2, SYNZIP18-xtpS_A3T3C/E4A4T4TE (protein encoded by plasmid pJW62)
# T2 sequence: T1 sequence
# [9] = test system: xtpS_A3T3C/E4A4T4TE without SYNZIP (protein encoded by plasmid pJW64)
substance,measurement,setting,value
GlbD first part (up to the A domain) with SZ17,"glidobactin A production, negative control without one SZ",[1],"In the negative controls without in each case one or both SZs, there is virtually no glidobactin A production"
same,glidobactin A production by the PKS/NRPS hybrid with divided GlbD,[2],leads to a complete synthesis of the glidobactin peptide
GlbD first part (up to the A domain) without SZ,"glidobactin A production, negative control without both SZs",[1],"In the negative controls without in each case one or both SZs, there is virtually no glidobactin A production"
same,"glidobactin A production, negative control without one SZ",[2],"In the negative controls without in each case one or both SZs, there is virtually no glidobactin A production"
ambS_A1T1C/E2A2T2C3-SYNZIP17 (protein encoded by plasmid pJW91),production of peptide 9 by NRPS-3b (no N-terminal SZ) relative to NRPS-3a (HPLC-MS),[3],peptide 9 to ˜18%
same,production of peptides 7 and 8 by NRPS-3b (no N-terminal SZ) relative to NRPS-3a (HPLC-MS),[3],7 and 8 were only produced to ˜50%
same,"peptide production by NRPS-3a in E. coli (HPLC-MS), peptides 7, 8 and 9",[4],"The peptides 7, 8 and 9, which eluted at a retention time of 6 min, 7.1 min and 7 min, could be identified on the basis of their mass"
szeS_C1A1T1C/E2A2T2C3-SYNZIP17 (protein encoded by plasmid pJW92),"peptide production by NRPS-4a in E. coli (HPLC-MS), peptides 10 and 11",[4],Both the mass of 10 and the mass of 11 could be detected in the extracted ion chromatogram (EIC)
szeS_C1A1T1C/E2A2T2C3-SYNZIP17 (protein encoded by plasmid pJW92) (enzyme),decrease of peptides 10 and 11 in NRPS-4b (no N-terminal SZ) against NRPS-4a (HPLC-MS),[5],80 % decrease
xldS_C1A1T1C/E2A2T2C3-SYNZIP17 (protein encoded by plasmid pJW93),peptide production by NRPS-5b (negative control without SZ18) against NRPS-5a (HPLC-MS),[3],the negative control (NRPS-5b) showed no significant difference in peptide production from the NRPS-5a construct
same,peptide production by NRPS-5a in E. coli (HPLC-MS),[4],showed the production of most expected derivatives
xtpS_A1T1C/E2A2 without SYNZIP (protein encoded by plasmid pNA11),decrease in productivity of NRPS-14c compared to NRPS-14a (told of the controls overall),[6],"Overall, the controls showed a decrease in productivity of 90% compared to NRPS-14a"
same,"production of peptides 2 and 1 by NRPS-14c (no C-terminal SZ), % of WT level (HPLC-MS)",[6],showed a very low production of the cyclic product 2 and absolutely no production of the linear peptide 1 at ˜3-10% of the WT level
same,decrease in productivity of NRPS-14d compared to NRPS-14a (told of the controls overall),[7],"Overall, the controls showed a decrease in productivity of 90% compared to NRPS-14a"
same,"production of peptides 2 and 1 by NRPS-14d (no SZs), % of WT level (HPLC-MS)",[7],showed a very low production of the cyclic product 2 and absolutely no production of the linear peptide 1 at ˜3-10% of the WT level
xtpS_A1T1C/E2A2T2C3 without SYNZIP (protein encoded by plasmid pJW63),decrease in production of cyclic peptide 2 by NRPS-16c in relation to NRPS-16a (both SZs),[8],control NRPS-16c shows a decrease in the production of cyclic peptide 2 by 80%
same,"production of peptide 2 by NRPS-16c (no C-terminal SZ), % of WT level (HPLC-MS)",[8],NRPS-16c showed only a very low production of 2 with 3.2% of the WT level
same,peptide production by NRPS-16d (no SZs) (HPLC-MS),[9],showed no peptide production for control experiments NRPS-16b and NRPS-16d
xtpS_A1T1C/E2A2T2C3-GS(4)-SYNZIP17 (protein encoded by plasmid pNA10),"increase in productivity for cyclic peptide 2 against the construct without linker (average over NRPS-15b, -15c, -15d)",[8],an average increase in productivity of ˜37% for cyclic 2 and ˜26% for linear peptide 1
same,"increase in productivity for linear peptide 1 against the construct without linker (average over NRPS-15b, -15c, -15d)",[8],an average increase in productivity of ˜37% for cyclic 2 and ˜26% for linear peptide 1
same,production of cyclic product 2 by NRPS-15d (4 AS GS linker) (HPLC-MS),[8],the cyclic product 2 with almost WT level was produced for all constructions with GS linker
xtpS_A1T1C/E2A2T2C3-GS(8)-SYNZIP17 (protein encoded by plasmid pNA9),"increase in productivity for cyclic peptide 2 against the construct without linker (average over NRPS-15b, -15c, -15d)",[8],an average increase in productivity of ˜37% for cyclic 2 and ˜26% for linear peptide 1
same,"increase in productivity for linear peptide 1 against the construct without linker (average over NRPS-15b, -15c, -15d)",[8],an average increase in productivity of ˜37% for cyclic 2 and ˜26% for linear peptide 1
same,production of cyclic product 2 by NRPS-15c (8 AS GS linker) (HPLC-MS),[8],the cyclic product 2 with almost WT level was produced for all constructions with GS linker
xtpS_A1T1C/E2A2T2C3-GS(10)-SYNZIP17 (protein encoded by plasmid pNA8),"increase in productivity for cyclic peptide 2 against the construct without linker (average over NRPS-15b, -15c, -15d)",[8],an average increase in productivity of ˜37% for cyclic 2 and ˜26% for linear peptide 1
same,"increase in productivity for linear peptide 1 against the construct without linker (average over NRPS-15b, -15c, -15d)",[8],an average increase in productivity of ˜37% for cyclic 2 and ˜26% for linear peptide 1
same,production of cyclic product 2 by NRPS-15b (10 AS GS linker) (HPLC-MS),[8],the cyclic product 2 with almost WT level was produced for all constructions with GS linker
xtpS_A1T1C/E2A2T2C3-SYNZIP19 (protein encoded by plasmid pNA1),"production of cyclic peptide 2 by NRPS-16 (C-A split, SZ19/18) relative to WT XtpS (HPLC-MS)",[8],13% (NRPS-16)
same,production of linear peptide 1 by NRPS-16 (HPLC-MS),[8],NRPS-16 showed no production of 1
same,peptide production by NRPS-16b (no N-terminal SZ) (HPLC-MS),[9],showed no peptide production for control experiments NRPS-16b and NRPS-16d
